Laboratory results from US20030148951A1.

Biological target: putative EMR2 ligand
Assay: flow cytometry on human monocyte-derived macrophages; abolished by EGTA

For “biotinylated soluble EMR2(EGF-1,2,3,4,5) protein-fluorescent bead complex (from UniProt Q9UHX3 24-260) (receptor)”, which percent of cells bound is on record?
Its percent of cells bound is 45 to 50%.
